# Test results from patent publication US20220332804A1 (CSL INNOVATION, published 2022).
# T1: human C2 E450A (human, UniProt P06681 21-752)
# T1 sequence: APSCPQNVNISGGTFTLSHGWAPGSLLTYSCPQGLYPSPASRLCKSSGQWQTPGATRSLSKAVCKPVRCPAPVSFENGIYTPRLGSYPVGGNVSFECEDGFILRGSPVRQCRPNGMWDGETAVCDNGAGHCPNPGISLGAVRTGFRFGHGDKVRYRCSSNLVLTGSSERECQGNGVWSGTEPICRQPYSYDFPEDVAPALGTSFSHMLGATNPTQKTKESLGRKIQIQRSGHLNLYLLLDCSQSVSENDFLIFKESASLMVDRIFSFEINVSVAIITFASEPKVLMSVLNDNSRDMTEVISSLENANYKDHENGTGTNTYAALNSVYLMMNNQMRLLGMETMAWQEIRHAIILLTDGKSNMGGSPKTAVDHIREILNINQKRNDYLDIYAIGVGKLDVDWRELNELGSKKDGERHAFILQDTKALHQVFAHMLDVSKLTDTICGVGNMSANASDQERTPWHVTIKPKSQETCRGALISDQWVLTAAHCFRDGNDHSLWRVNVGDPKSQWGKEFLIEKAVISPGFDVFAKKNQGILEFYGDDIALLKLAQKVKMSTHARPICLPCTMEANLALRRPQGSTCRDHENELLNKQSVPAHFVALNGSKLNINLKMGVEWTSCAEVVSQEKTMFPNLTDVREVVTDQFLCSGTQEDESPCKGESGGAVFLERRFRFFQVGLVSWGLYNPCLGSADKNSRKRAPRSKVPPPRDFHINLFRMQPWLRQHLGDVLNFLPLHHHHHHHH
# T2: human C2 M452A (human, UniProt P06681 21-752)
# T2 sequence: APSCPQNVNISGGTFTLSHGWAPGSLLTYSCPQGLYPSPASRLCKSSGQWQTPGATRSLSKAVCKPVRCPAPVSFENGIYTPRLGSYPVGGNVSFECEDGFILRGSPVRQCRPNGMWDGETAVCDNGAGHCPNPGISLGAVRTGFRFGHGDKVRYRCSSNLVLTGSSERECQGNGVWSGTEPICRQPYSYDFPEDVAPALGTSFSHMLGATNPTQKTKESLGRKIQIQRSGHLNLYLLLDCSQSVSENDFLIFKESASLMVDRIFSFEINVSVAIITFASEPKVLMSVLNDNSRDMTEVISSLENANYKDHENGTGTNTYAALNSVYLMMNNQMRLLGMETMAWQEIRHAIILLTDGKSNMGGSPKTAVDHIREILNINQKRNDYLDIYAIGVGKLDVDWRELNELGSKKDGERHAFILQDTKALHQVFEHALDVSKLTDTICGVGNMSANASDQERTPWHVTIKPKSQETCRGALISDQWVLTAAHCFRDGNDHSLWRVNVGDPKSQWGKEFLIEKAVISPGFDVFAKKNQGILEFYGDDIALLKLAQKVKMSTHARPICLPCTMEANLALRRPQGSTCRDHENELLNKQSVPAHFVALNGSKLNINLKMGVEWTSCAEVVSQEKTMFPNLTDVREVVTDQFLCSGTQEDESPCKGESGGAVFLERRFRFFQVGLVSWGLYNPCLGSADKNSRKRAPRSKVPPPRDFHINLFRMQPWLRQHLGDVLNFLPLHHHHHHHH
# T3: human C2 S469A (human, UniProt P06681 21-752)
# T3 sequence: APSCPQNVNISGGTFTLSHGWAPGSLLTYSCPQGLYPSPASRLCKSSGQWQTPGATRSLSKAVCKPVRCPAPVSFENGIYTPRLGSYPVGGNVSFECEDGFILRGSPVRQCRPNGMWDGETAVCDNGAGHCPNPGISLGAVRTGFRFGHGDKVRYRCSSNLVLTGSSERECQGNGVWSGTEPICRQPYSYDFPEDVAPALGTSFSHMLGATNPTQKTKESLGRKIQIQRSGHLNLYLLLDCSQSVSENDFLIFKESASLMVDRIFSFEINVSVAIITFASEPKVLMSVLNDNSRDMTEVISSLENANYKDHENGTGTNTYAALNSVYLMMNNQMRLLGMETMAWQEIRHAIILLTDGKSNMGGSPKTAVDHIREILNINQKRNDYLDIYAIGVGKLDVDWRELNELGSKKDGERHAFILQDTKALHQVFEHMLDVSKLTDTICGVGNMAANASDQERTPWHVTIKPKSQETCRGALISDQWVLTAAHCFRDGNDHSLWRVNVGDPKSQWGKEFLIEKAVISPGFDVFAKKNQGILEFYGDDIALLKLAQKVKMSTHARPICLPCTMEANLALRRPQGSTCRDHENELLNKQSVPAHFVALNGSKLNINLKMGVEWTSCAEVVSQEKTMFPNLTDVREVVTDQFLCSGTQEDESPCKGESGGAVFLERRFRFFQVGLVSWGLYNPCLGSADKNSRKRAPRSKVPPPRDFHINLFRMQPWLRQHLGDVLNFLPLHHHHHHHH
# T4: human C2 G707A (human, UniProt P06681 21-752)
# T4 sequence: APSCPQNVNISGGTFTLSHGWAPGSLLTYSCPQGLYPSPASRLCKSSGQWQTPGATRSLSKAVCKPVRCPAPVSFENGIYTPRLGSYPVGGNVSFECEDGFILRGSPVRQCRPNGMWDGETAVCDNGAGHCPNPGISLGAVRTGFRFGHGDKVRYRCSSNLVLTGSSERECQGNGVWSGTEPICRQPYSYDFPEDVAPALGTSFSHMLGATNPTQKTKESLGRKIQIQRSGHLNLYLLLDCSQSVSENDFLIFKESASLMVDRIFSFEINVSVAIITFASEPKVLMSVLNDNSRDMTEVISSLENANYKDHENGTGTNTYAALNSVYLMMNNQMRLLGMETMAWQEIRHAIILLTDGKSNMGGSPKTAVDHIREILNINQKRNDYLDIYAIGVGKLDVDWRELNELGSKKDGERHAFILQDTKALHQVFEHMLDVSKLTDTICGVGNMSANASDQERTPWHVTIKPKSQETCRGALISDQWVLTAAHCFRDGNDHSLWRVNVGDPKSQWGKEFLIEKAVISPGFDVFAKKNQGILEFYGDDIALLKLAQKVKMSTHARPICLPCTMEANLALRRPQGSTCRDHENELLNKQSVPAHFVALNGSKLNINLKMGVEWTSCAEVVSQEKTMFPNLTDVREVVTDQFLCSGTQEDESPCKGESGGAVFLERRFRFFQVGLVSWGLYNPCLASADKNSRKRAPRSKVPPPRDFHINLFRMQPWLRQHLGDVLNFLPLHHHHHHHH
# Columns and labels:
# Assay in all cases: SPR, KD relative to WT C2;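 also: biacore SPR at 37 °C, anti-C2 mAbs captured via immobilised goat anti-human IgG, C2 alanine or serine surface mutants as analytes, 1:1 model fitted, double-referenced sensograms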
# [1] = target: T1, human C2 E450A
# [2] = target: T2, human C2 M452A
# [3] = target: T3, human C2 S469A
# [4] = target: T4, human C2 G707A
binder,measurement,setting,value
"RF16-226 (antibody, human IgG4 S228P, lambda, pH-dependent anti-C2 antibody from a phage display library; also called WT) heavy: not shown light: SYELTQPPSVSVSPGQTARITCSGDALTSKYVAWYQQKSGLAPLLVIYEDTRRPSGIPAKFSGSSSGSVATLTISGAHGDDEADYYCYSTDASGHQRVFGGGTKLTVLSQPKAAPSVTLFPPSSEELQANKATLVCLISDFYPGAVTVAWKADGSPVKAGVETTKPSKQSNNKYAASSYLSLTPEQWKSHRSYSCQVTHEGSTVEKTVAPTECS",Fold diff,[1],0 fold
same,Fold diff,[2],0 fold
same,Fold diff,[3],3 fold
same,Fold diff,[4],2 fold
